Assay results reported in article PMC12137140, “The fast-evolving FIKK kinase family of Plasmodium falciparum can be inhibited by a single compound” (Nature Microbiology, 2025).
Where no end group is shown, it is not given here. [ ]: non-standard residue; d: D form.

B1: FIKK13_6 (peptide)
peptide: YIVSVVCWSD
modifications: D-tyrosine at position 1; cyclised via a thioether bond between the N-terminus and the cysteine side chain; C-terminal amide
B2: FIKK13_5 (peptide)
peptide: YRIFRIWWERCG
modifications: D-tyrosine at position 1; cyclised via a thioether bond between the N-terminus and the cysteine side chain; C-terminal amide
B3: FIKK13_2 (peptide)
peptide: YSFPVYRIWYRDCG
modifications: D-tyrosine at position 1; cyclised via a thioether bond between the N-terminus and the cysteine side chain; C-terminal amide
B4: FIKK13_4_Y10A (peptide)
peptide: YPLRFLSVKAHCG
modifications: D-tyrosine at position 1; cyclised via a thioether bond between the N-terminus and the cysteine side chain; C-terminal amide
B5: FIKK13_4_linear (peptide)
peptide: [dY]PLRFLSVKYHCG-NH2
modifications: N-terminus assumed
SMILES: CC(C)C[C@H](NC(=O)[C@H](Cc1ccccc1)NC(=O)[C@H](CCCNC(=N)N)NC(=O)[C@H](CC(C)C)NC(=O)[C@@H]1CCCN1C(=O)[C@H](N)Cc1ccc(O)cc1)C(=O)N[C@@H](CO)C(=O)N[C@H](C(=O)N[C@@H](CCCCN)C(=O)N[C@@H](Cc1ccc(O)cc1)C(=O)N[C@@H](Cc1c[nH]cn1)C(=O)N[C@@H](CS)C(=O)NCC(N)=O)C(C)C
B6: FIKK13_1 (peptide)
peptide: YRLVFGCG
modifications: D-tyrosine at position 1; cyclised via a thioether bond between the N-terminus and the cysteine side chain; C-terminal amide
B7: FIKK13_2_linear (peptide)
peptide: [dY]SFPVYRIWYRDCG-NH2
modifications: N-terminus assumed
SMILES: CC[C@H](C)[C@H](NC(=O)[C@H](CCCNC(=N)N)NC(=O)[C@H](Cc1ccc(O)cc1)NC(=O)[C@@H](NC(=O)[C@@H]1CCCN1C(=O)[C@H](Cc1ccccc1)NC(=O)[C@H](CO)NC(=O)[C@H](N)Cc1ccc(O)cc1)C(C)C)C(=O)N[C@@H](Cc1c[nH]c2ccccc12)C(=O)N[C@@H](Cc1ccc(O)cc1)C(=O)N[C@@H](CCCNC(=N)N)C(=O)N[C@@H](CC(=O)O)C(=O)N[C@@H](CS)C(=O)NCC(N)=O
B8: FIKK13_3 (peptide)
peptide: YPFITSPRYCFML
modifications: D-tyrosine at position 1; cyclised via a thioether bond between the N-terminus and the cysteine side chain; C-terminal amide

biological target: Bio-His-FIKK13 (Plasmodium falciparum 3D7); assay: SPR; single-cycle kinetics, Biacore S200, Biotin CAPture kit; Bio-His-FIKK13 immobilised (about 1,400 RU), peptides as analytes; 50 mM Tris pH 7.5, 250 mM NaCl, 2 mM DTT, 10 mM MgCl2, 1.5 µM ADP, 0.02% Tween, 0.1% DMSO; 25 °C; 100 s contact time

Binder	Kd [µM]	koff [s⁻¹]	kon [M⁻¹ s⁻¹]
B1	> 10		
B2		0.07	1.9e+06
B3		0.2	1.4e+06
B4	> 10		
B5	> 10		
B6	> 10		
B7	> 10		
B8		0.029	3.5e+06
